Test results from publication PMC4577212, “X-Ray Structure and Mutagenesis Studies of the N-Isopropylammelide Isopropylaminohydrolase, AtzC” (PLoS ONE, 2015).

B1: N-isopropylammelide isopropylaminohydrolase AtzC from Pseudomonas sp. strain ADP, His-tagged (enzyme, UniProt O52063 1-403, looked up)
chain: MSKDFDLIIRNAYLSEKDSVYDIGIVGDRIIKIEAKIEGTVKDEIDAKGNLVSPGFVDAHTHMDKSFTSTGERLPKFWSRPYTRDAAIEDGLKYYKNATHEEIKRHVIEHAHMQVLHGTLYTRTHVDVDSVAKTKAVEAVLEAKEELKDLIDIQVVAFAQSGFFVDLESESLIRKSLDMGCDLVGGVDPATRENNVEGSLDLCFKLAKEYDVDIDYHIHDIGTVGVYSINRLAQKTIENGYKGRVTTSHAWCFADAPSEWLDEAIPLYKDSGMKFVTCFSSTPPTMPVIKLLEAGINLGCASDNIRDFWVPFGNGDMVQGALIETQRLELKTNRDLGLIWKMITSEGARVLGIEKNYGIEVGKKADLVVLNSLSPQWAIIDQAKRLCVIKNGRIIVKDEVIVA
notes: AtzC, N-isopropylammelide isopropylaminohydrolase (E.C. 3.5.99.4), Pseudomonas sp. strain ADP; The tag carries a thrombin site; also called wild-type AtzC; tagged AtzC protein; source: E. coli BL21 (λDE3), purified (Ni-NTA, Superdex 200 SEC); not shown: His-tag, N-terminal, kept
B2: N-isopropylammelide isopropylaminohydrolase AtzC from Pseudomonas sp. strain ADP, thrombin-treated (His-tag removed) (enzyme, UniProt O52063 1-403, looked up)
chain: B1 chain
notes: AtzC, N-isopropylammelide isopropylaminohydrolase (E.C. 3.5.99.4), Pseudomonas sp. strain ADP; unmodified atzC gene (GenBank U66917.2) in pETCC2; tag removed by thrombin in the crystallisation sample without further purification; One Zn2+ ion per monomer; malonate in the active site of the crystal; also called WT; native protein; source: E. coli BL21 (λDE3), purified (Ni-NTA, Superdex 200 SEC), …

Key:
[1] = target: the molecule itself; assay: SEC; Superdex 200 prep-grade, 130 mL column, 50 mM TRIS pH 7.5, 100 mM NaCl; native molecular mass of ~210 kDa
[2] = target: the molecule itself; assay: crystal structure; thrombin-treated protein, 2.4 M sodium malonate pH 7; space group C2, half of the tetramer in the asymmetric unit; 1.84 Å; oligomer assessed with PISA

Row | Protein | stoichiometry N [1] | stoichiometry N [2]
1 | B1 | 4 | 
2 | B2 |  | 4
